Experimental data published in patent US20210032365A1 (Chugai, published 2021).
Numbering of substitutions follows the chain as printed. Numbers in names are those of the source.

T1: human C1s (human, UniProt P09871 16-688)
T1 construct: also called hC1s; serum-derived human C1s (CompTech)
T1 sequence: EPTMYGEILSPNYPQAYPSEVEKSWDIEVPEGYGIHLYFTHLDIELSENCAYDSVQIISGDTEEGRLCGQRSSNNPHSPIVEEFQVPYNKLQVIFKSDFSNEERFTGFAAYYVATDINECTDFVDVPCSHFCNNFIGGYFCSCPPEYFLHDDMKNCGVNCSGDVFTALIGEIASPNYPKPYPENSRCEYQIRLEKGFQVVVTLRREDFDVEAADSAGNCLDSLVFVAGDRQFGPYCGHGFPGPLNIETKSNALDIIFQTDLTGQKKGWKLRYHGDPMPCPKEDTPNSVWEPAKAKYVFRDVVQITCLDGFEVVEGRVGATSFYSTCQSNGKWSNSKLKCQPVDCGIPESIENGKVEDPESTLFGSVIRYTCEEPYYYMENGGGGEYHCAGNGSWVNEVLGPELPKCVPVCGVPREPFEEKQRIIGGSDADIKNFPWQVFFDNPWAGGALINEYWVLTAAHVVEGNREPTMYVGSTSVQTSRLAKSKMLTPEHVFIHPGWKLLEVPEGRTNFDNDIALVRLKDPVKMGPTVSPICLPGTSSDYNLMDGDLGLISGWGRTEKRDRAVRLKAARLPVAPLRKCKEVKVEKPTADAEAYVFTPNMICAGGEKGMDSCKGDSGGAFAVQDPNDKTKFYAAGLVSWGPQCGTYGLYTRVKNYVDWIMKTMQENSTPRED

T2: human C1s (human, UniProt P09871 16-688)
T2 construct: Analyte in the Biacore assays; also called hC1s; serum-derived human C1s (CompTech)
T2 sequence: T1 sequence

B1: C1_IPN92H0281-SG4GK/IPN93L0024-SK1 (antibody, human IgG4 S228P, kappa, name in Kabat numbering)
heavy: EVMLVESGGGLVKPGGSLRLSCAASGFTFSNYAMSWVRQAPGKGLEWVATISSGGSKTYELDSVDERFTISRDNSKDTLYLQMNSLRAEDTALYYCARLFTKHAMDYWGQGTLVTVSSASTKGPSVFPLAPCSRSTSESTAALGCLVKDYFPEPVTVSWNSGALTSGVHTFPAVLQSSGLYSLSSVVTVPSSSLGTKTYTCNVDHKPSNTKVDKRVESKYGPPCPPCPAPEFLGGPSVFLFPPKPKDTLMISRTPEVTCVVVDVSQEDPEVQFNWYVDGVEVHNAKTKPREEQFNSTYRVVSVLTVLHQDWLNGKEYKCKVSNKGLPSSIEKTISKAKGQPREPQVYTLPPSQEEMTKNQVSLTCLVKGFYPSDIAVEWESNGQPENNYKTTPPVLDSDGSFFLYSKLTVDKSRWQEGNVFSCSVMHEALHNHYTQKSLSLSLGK
light: QIVLTQSPATLSLSPGERATLSCTASSSVSSSYLHWYQQKPGKAPKLWIYSTSNLASGVPSRFSGSGSGTDYTLTISSLQPEDFATYYCHQYYRLHPITFGQGTKLEIKRTVAAPSVFIFPPSDEQLKSGTASVVCLLNNFYPREAKVQWKVDNALQSGNSQESVTEQDSKDSTYSLSSTLTLSKADYEKHKVYACEVTHQGLSSPVTKSFNRGEC
notes: also called IPN92H0281/IPN93L0024
B2: C1_IPN92H0282-SG4GK/IPN93L0091-SK1 (antibody, human IgG4 S228P, kappa, name in Kabat numbering, V domains shown)
VH: EVMLVESGGGLVKPGGSLRLSCAASGFTFSNYAMSWVRQAPGKGLEWVATISSGGSHTYELDSVDERFTISRDNSKDTLYLQMNSLRAEDTALYYCARLFTKHAMDYWGQGTLVTVSS
VL: QIVLTQSPATLSLSPGERATLSCTASSSVSSSRLHWYQQKPGKAPKLWIYSTSNLASGVPSRFSGSGSGTDYTLTISSLQPEDFATYYCHQYYRLHPITFGQGTKLEIKR
notes: also called IPN92H0282/IPN93L0091
B3: C1_IPN92H0286-SG4GK/IPN93L0205-SK1 (antibody, human IgG4 S228P, kappa, name in Kabat numbering)
heavy: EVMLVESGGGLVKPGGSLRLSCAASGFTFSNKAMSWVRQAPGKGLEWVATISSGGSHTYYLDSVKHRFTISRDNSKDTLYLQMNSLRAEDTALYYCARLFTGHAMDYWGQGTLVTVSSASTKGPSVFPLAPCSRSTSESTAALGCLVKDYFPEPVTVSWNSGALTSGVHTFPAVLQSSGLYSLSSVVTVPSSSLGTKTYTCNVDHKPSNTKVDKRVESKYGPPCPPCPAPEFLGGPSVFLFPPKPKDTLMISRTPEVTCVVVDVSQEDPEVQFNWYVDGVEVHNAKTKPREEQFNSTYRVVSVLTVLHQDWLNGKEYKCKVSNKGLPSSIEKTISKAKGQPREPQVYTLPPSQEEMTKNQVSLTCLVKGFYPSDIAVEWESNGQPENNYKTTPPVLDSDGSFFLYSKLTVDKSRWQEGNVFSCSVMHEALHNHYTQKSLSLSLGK
light: B1 light with Y33R, Y93H, L95H, H96P
notes: also called IPN92H0286/IPN93L0205
B4: C1_IPN92H0282-SG4GK/IPN93L0024-SK1 (antibody, human IgG4 S228P, kappa, name in Kabat numbering, V domains shown)
VH: B2 VH
VL: B2 VL with R33Y
notes: also called IPN92H0282/IPN93L0024
B5: C1_IPN92H0033-SG4GK/IPN93L0090-SK1 (antibody, human IgG4 S228P, kappa, name in Kabat numbering, V domains shown)
VH: B2 VH with E60Y, D65K, E66G, K102G
VL: B2 VL with R33K
notes: VL substitutions from IPN009VK3, Kabat numbering; also called IPN92H0033/IPN93L0090
B6: C1_IPN92H0061-SG4GK/IPN93L0024-SK1 (antibody, human IgG4 S228P, kappa, name in Kabat numbering, V domains shown)
VH: B2 VH with F29K, E60Y, D65K, E66G, K102G
VL: B2 VL with R33Y
notes: Substitutions from IPN009VH2, Kabat numbering; also called IPN92H0061/IPN93L0024
B7: C1_IPN92H0288-SG4GK/IPN93L0212-SK1 (antibody, human IgG4 S228P, kappa, name in Kabat numbering, V domains shown)
VH: B2 VH with E66G
VL: B2 VL with S28E, S31E
notes: VH = IPN009VH2 with Y59E/K64D/G98K/Y99H (Kabat); also called IPN92H0288/IPN93L0212
B8: C1_IPN92H0079-SG4GK/IPN93L0024-SK1 (antibody, human IgG4 S228P, kappa, name in Kabat numbering, V domains shown)
VH: B2 VH with Y32K, E60Y, D65K, E66G, K102G
VL: B2 VL with R33Y
notes: Substitutions from IPN009VH2, Kabat numbering; also called IPN92H0079/IPN93L0024
B9: C1_IPN92H0091-SG4GK/IPN93L0024-SK1 (antibody, human IgG4 S228P, kappa, name in Kabat numbering, V domains shown)
VH: B2 VH with M34K, E60Y, D65K, E66G, K102G
VL: B2 VL with R33Y
notes: Substitutions from IPN009VH2, Kabat numbering; also called IPN92H0091/IPN93L0024
B10: C1_IPN92H0117-SG4GK/IPN93L0024-SK1 (antibody, human IgG4 S228P, kappa, name in Kabat numbering, V domains shown)
VH: B2 VH with S53Q, E60Y, D65K, E66G, K102G
VL: B2 VL with R33Y
notes: Substitutions from IPN009VH2, Kabat numbering; also called IPN92H0117/IPN93L0024
B11: C1_IPN92H0033-SG4GK/IPN93L0072-SK1 (antibody, human IgG4 S228P, kappa, name in Kabat numbering, V domains shown)
VH: B2 VH with E60Y, D65K, E66G, K102G
VL: B2 VL with S30K, R33Y
notes: VL substitutions from IPN009VK3, Kabat numbering; also called IPN92H0033/IPN93L0072
B12: C1_IPN92H0281-SG4GK/IPN93L0091-SK1 (antibody, human IgG4 S228P, kappa, name in Kabat numbering, V domains shown)
VH: B2 VH with H57K
VL: B2 VL
notes: also called IPN92H0281/IPN93L0091
B13: C1_IPN92H0033-SG4GK/IPN93L0024-SK1 (antibody, human IgG4 S228P, kappa)
heavy: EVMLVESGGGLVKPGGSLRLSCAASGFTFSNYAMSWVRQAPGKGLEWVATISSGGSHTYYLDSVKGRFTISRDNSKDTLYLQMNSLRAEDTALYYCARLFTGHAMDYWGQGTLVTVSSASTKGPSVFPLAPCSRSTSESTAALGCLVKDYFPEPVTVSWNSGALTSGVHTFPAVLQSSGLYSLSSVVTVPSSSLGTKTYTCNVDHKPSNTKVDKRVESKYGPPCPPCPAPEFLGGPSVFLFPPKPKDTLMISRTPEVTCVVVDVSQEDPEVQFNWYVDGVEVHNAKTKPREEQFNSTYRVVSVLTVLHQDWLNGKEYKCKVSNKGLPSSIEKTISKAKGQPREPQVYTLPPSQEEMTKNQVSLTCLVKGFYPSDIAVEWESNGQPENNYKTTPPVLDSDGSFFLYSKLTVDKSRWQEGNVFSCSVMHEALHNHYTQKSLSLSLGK
light: B1 light
notes: VH Y99H, VL P95H against the parent (Kabat); also called IPN92H0033/IPN93L0024
B14: C1_IPN92H0080-SG4GK/IPN93L0024-SK1 (antibody, human IgG4 S228P, kappa, name in Kabat numbering, V domains shown)
VH: B2 VH with Y32R, E60Y, D65K, E66G, K102G
VL: B2 VL with R33Y
notes: Substitutions from IPN009VH2, Kabat numbering; also called IPN92H0080/IPN93L0024

Key:
human C1s [1] = target: T1, human C1s; experiment: SPR, Ab captured; pH 7.4, 1.2 mM Ca
Experimental: (§1) Each antibody was captured onto the sensor surface by protein A/G. Antibody capture levels were aimed at 200 resonance unit (RU). Serum-derived human C1s (CompTech) or recombinant C1s prepared in EXAMPLE 1 was injected at 50 nM, followed by dissociation. The sensor surface was regenerated in each cycle with 10 mM Glycine-HCl, pH 1.5. […] The ratio of KD 5.8+ to KD 7.4+(“KD 5+/7+”) and that of KD 5.8− to KD 7.4+(“KD 5−/7+”) were calculated. When the KD 5+/7+ or KD 5−/7+ of a variant is larger than that of the parent antibody IPN009VH2-SG4GK/IPN009VK3-SK1, that variant is considered to be “pH”- or “pH and Ca”-dependent, respectively. When binding response in 5(+) buffer and/or in 5(−) buffer of a variant is much lower than that of IPN09VH2/IPN009VK3, that variant is also considered as “pH”- and/or “pH and Ca”-dependent. Therefore, such mutations are effective to generate “pH”- and/or “pH and Ca”-dependent antibody. To further enhance “pH” and/or “pH and Ca” dependency, a combination of histidine mutations was conducted. Antibodies with combinations of histidine mutations were evaluated using Biacore by the method described above.
(§2) C1_1IPN92H0033 (SEQ ID NO: 17)-SG4GK/IPN93L0024 (SEQ ID NO: 18)-SK1 (IPN92H0033/IPN93L0024) was selected for further optimization. Histidine, Lysine, Arginine, aspartic acid, glutamic acid, and glutamine scanning was conducted for CDRs and certain positions of FRs of IPN92H0033/IPN93L0024. Variants with a mutation were generated and purified, and evaluated using Biacore by the method mentioned above. All variants were evaluated using Biacore as mentioned above. Mutations that improved “pH” and/or “pH and Ca” dependency were selected for the combination.

human C1s [2] = target: T2, human C1s; experiment: SPR (Biacore T200, 37C), Ab captured on protein A/G; pH 5.8, 1.2 mM Ca
Experimental: as §1, §2

human C1s [3] = target: T2, human C1s; experiment: SPR; KD at pH 5.8 (3 uM Ca) over KD at pH 7.4 (1.2 mM Ca)
Experimental: as §1, §2

human C1s [4] = target: T2, human C1s; experiment: SPR; KD at pH 5.8 (1.2 mM Ca) over KD at pH 7.4 (1.2 mM Ca)
Experimental: as §1, §2

human C1s [5] = target: T2, human C1s; experiment: SPR (Biacore T200, 37C), Ab captured on protein A/G; pH 5.8, 3 uM Ca
Experimental: as §1, §2

Row | Binder | Kd (human C1s [1]) [nM] | koff (human C1s [1]) [s⁻¹] | kon (human C1s [1]) [M⁻¹ s⁻¹] | Kd (human C1s [2]) [nM] | koff (human C1s [2]) [s⁻¹] | kon (human C1s [2]) [M⁻¹ s⁻¹] | KD 5(-)/7(+) (human C1s [3]) | KD 5(+)/7(+) (human C1s [4]) | Kd (human C1s [5]) [nM] | koff (human C1s [5]) [s⁻¹] | kon (human C1s [5]) [M⁻¹ s⁻¹]
1 | B1 | 2.52 | 0.001 | 396000 | – | – | – | – | – | – | – | –
2 | B2 | 1.96 | 0.000924 | 471000 | – | – | – | – | – | – | – | –
3 | B3 | 1.58 | 0.00156 | 984000 | – | – | – | – | – | – | – | –
4 | B4 | 1.65 | 0.000632 | 383000 | – | – | – | – | – | – | – | –
5 | B5 | – | – | – | 9.52 | 0.0055 | 577000 | 5.13 | 6.8 | 7.18 | 0.00427 | 595000
6 | B6 | – | – | – | 11.9 | 0.022 | 1.85e+06 | 0.79 | 1.7 | 5.43 | 0.00344 | 633000
7 | B7 | 1.81 | 0.00117 | 648000 | – | – | – | – | – | – | – | –
8 | B8 | – | – | – | 19.3 | 0.0162 | 838000 | 2.6 | 5.7 | 8.75 | 0.0052 | 594000
9 | B9 | – | – | – | 12 | 0.00634 | 530000 | 1.28 | 4.5 | 3.43 | 2.67 | 7.8e+08
10 | B10 | – | – | – | 13.1 | 0.00799 | 610000 | 2.26 | 3.8 | 7.71 | 0.00542 | 703000
11 | B11 | – | – | – | 9.12 | 0.00529 | 530000 | 4.18 | 6.7 | 5.72 | 0.00553 | 967000
12 | B12 | 4.72 | 0.00216 | 457000 | – | – | – | – | – | – | – | –
13 | B13 | – | – | – | – | 0.0045 | 519000 | 1.83 | 3 | – | – | –
14 | B14 | – | – | – | 15.9 | 0.0129 | 814000 | 2.86 | 5 | 9.09 | 0.00651 | 717000
